Experimental data: patent publication US20230159643A1 (H LUNDBECK A S, published 2023)

T1: Sortilin SORTECDBAP_hB01-05 (human/tetraodon chimera)
T1 construct: Shuffle construct
T1 chain: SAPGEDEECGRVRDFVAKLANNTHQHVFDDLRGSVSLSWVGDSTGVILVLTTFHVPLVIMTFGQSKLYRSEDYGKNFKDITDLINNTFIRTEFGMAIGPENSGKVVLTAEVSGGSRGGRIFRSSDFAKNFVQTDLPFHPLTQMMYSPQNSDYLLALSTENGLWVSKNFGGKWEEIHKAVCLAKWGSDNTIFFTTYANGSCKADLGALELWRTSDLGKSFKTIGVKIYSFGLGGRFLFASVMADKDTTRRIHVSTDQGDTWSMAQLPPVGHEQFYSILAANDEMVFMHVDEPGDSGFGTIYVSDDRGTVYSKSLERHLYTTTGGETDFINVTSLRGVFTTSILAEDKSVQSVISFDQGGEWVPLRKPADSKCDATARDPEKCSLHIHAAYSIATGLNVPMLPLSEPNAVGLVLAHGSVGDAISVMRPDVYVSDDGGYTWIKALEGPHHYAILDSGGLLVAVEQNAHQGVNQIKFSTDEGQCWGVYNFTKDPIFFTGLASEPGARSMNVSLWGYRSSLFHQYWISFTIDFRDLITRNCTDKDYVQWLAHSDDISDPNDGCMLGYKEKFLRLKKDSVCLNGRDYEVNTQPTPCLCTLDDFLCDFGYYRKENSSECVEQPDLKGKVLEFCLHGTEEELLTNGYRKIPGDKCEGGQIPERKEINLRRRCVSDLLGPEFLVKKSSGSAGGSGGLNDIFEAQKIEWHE

T2: Sortilin SORTECDBAP_hB06-10 (human/tetraodon chimera)
T2 construct: Shuffle construct
T2 chain: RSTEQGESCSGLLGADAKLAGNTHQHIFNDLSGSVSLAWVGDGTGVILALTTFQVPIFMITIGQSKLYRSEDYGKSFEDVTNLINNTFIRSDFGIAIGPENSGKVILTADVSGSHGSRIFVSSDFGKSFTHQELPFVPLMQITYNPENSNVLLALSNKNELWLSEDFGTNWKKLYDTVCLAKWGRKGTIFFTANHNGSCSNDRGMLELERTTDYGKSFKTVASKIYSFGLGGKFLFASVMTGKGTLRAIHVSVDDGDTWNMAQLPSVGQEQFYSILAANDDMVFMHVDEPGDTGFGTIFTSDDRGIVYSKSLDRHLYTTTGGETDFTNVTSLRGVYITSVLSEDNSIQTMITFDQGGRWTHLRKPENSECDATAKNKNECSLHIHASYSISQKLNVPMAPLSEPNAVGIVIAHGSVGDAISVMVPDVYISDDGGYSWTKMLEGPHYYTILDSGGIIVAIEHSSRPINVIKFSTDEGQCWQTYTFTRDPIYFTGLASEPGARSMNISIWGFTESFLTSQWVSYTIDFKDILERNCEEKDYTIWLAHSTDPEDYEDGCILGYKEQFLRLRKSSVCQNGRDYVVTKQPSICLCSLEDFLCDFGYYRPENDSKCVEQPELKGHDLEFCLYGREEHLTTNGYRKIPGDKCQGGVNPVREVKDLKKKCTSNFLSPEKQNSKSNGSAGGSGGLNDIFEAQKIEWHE

T3: Sortilin SORTECD_HIS (human, UniProt Q99523 78-755)
T3 construct: also called Sortilin-ECD-His; HIS-tagged Sortilin ECD
T3 sequence: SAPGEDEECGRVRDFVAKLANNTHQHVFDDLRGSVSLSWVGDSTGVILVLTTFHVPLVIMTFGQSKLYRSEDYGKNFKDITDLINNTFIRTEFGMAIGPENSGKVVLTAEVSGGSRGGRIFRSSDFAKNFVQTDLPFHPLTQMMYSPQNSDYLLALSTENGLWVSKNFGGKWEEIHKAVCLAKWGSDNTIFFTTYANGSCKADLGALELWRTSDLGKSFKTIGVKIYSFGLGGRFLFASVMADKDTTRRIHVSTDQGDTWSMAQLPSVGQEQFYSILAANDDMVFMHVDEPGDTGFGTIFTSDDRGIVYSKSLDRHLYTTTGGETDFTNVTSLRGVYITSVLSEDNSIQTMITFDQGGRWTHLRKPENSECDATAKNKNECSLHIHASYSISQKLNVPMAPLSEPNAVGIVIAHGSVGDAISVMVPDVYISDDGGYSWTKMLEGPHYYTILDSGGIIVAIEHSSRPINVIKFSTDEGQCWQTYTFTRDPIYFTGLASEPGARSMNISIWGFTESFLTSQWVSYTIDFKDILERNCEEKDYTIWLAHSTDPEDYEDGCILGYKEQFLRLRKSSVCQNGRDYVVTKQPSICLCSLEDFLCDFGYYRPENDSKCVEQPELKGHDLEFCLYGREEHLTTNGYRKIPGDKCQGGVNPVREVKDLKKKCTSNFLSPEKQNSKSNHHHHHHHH


Tests used:
[1] = biological target: T1, Sortilin SORTECDBAP_hB01-05; assay: BLI Octet 384RED, antibody on Protein A sensor, Sortilin construct in solution
Experimental: (§1) Binding kinetics of anti-Sortilin HuMab antibodies to Sortilin were determined using Octet 384RED (Fortebio, Menlo Park, USA). HuMab solutions of 2 μg/ml were made by dilution in sample diluent (ForteBio, art. No. 18-5028). Prot A sensors (ForteBio, art. no. 18-0004) were prewetted with kinetics buffer (1:10 sample diluent in PBS) for at least 600 seconds. Subsequently sensors were immobilized with HuMab solution for 600 seconds. A baseline response was obtained by dipping in kinetics buffer for 120 seconds. Association of SORTECD constructs was performed during a 1000 seconds incubation. This was followed by dissociation in kinetics buffer for 100 seconds. After dissociation, sensors were regenerated (10 mM Glycine pH 1.0) and neutralized (kinetics buffer) 3 times for 5 seconds. […] A molecular weight of 76.8 kDA was used for SORTECDHis. Data was fitted with ForteBio Analysis 6.4 software, using a global full fit.

[2] = biological target: T2, Sortilin SORTECDBAP_hB06-10; assay: as above
Experimental: as §1

Sortilin SORTECD_HIS = biological target: T3, Sortilin SORTECD_HIS; assay: HTRF: displacement of PGRN binding to His-tagged Sortilin ECD
Experimental: Dose-response evaluation of antibodies was performed with ten concentrations covering 50 pM to 1 μM in a 3-fold dilution curve. The half-maximal inhibitory concentration (IC50) values were calculated by non-linear regression using sigmoidal concentration response (variable slope) in XLfit 4 (IDBS, UK).
Experiments were performed in assay buffer (50 mM Phosphate, pH 7.0, 0.1% BSA) in a total volume of 20 μl in a Greiner 384 well, white, low volume microtiter plate, (784075, Greiner).

[3] = biological target: T1, Sortilin SORTECDBAP_hB01-05; assay: BLI Octet 384RED (Example 8), Sortilin construct in solution
Experimental: as §1

| Binder | binding result [1] | EC50 [2] [µg/mL] | IC50 (Sortilin SORTECD_HIS) [nM] | binding result [3] |
| --- | --- | --- | --- | --- |
| 1320 (antibody, V domains shown, also called IgG1-6003-1320; Antibody 1320) VH: not shown VL: EIVLTQSPATLSLSPGERATLSCRASQSVSSYLAWYQQRPGQAPRLLIYDASNRATGIPARFSGSGSGTDFTLSISSLEPEDFAVYYCQQRTNWSITFGQGTRLEIK | no binding (tested: 10 µg/ml construct) | 0.0554 | 32 |  |
| Antibody 1F2 (antibody, V domains shown, Mouse anti-human Sortilin monoclonal antibody from hybridoma (BALB/c), purified on protein G; Assigned to the D Region; also called 1F2F4; Ab 1F2) VH: EVQLVESGGDLVKPGGSLKLSCAASGFTFSSYGMSWVRQTPDKRLEWVAIISSGGSYTHYPDSVKGRFTISRDNAKNTLYLQMSSLKSEDTAMYYCARLCGPLCSGYWGQGTSVTVSS VL: QAVVTQESALTTSPGETVTLTCRSSTGAVTTSNYANWVQEKPDHLFTGLIGGTNNRAPGVPARFSGSLIGDKAALTITGAQTEDEAIYFCALWYSNHFWVFGGGTKLTVLG |  |  |  | no binding (tested: 10 µg/ml construct) |
| Antibody 5E1 (antibody, V domains shown, Mouse anti-human Sortilin monoclonal antibody from hybridoma (BALB/c), purified on protein G; Assigned to the D Region; also called 5E1F6; Ab 5E1) VH: EVHLVESGGDLVNPGGSLKLSCEASGFIFSIYGMSWVRQTPDKRLEWVAMISSGGIYTQYPDSVKGRFTISRDNAKNTLYLQMSGLKSEDTGTYHCTRHDDSWFAYWGQGTLVTVSA VL: not shown |  |  |  | no binding (tested: 10 µg/ml construct) |
